Measurements reported in US20250163183A1 (COAGULANT THERAPEUTICS, published 2025).
Where “and” joins values, the source holds several entries; their conditions need not be identical. Equal entries are not always repeated.

T1: FVIIa (UniProt P08709 61-466)
T1 construct: also called factor VIIa
T1 sequence (looked up): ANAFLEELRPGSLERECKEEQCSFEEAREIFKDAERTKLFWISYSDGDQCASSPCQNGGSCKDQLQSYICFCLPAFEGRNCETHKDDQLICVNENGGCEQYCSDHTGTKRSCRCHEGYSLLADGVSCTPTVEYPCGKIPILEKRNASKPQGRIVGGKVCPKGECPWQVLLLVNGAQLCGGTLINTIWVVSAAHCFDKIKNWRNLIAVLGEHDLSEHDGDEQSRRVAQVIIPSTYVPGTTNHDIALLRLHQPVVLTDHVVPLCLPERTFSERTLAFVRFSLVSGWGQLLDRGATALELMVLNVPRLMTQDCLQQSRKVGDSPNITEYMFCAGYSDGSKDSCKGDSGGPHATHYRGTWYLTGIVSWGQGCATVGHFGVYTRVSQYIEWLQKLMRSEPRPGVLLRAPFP


How the values were obtained:
[1] = molecular target: T2, human activated protein C (APC) (human, UniProt P04070 43-461); assay: cell-based or functional assay
T2 sequence (P04070 other isoform, or with tags, fused parts or gaps): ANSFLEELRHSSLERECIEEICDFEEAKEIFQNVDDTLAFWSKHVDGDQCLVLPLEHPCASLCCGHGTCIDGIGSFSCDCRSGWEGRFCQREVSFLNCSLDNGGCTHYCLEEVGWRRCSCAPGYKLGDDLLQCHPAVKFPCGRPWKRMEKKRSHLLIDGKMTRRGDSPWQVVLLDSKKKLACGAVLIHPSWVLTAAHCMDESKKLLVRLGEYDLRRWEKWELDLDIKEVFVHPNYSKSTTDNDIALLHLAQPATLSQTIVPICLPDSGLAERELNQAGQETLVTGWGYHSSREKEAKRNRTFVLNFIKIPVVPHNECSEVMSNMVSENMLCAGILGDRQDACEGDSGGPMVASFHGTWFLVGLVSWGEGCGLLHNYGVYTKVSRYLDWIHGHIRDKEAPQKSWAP

[2] = molecular target: T2, human activated protein C (APC); assay: BLI, VHH captured via anti-V5, APC in solution
[3] = molecular target: T3, human protein C (PC) zymogen (human, UniProt P04070 43-197; P04070 200-461); assay: ELISA screen, PC-coated wells, OD450, n=2 [Continued]
T3 construct: Bought
T3 sequence (P04070 43-197, chain 1 of 2): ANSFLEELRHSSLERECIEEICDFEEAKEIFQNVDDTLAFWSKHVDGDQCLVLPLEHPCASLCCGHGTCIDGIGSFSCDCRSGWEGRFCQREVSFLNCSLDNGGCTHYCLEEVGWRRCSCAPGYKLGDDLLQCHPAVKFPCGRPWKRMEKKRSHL
T3 sequence (P04070 200-461, chain 2 of 2): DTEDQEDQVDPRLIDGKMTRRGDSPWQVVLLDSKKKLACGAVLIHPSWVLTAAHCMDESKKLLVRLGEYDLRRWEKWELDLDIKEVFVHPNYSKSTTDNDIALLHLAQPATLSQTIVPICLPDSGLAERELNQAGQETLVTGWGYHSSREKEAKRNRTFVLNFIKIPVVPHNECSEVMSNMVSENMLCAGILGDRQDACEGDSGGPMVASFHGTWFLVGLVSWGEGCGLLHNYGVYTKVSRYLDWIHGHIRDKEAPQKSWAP

[4] = molecular target: T2, human activated protein C (APC); assay: BLI (Octet): nanobody captured on anti-V5 sensor, dipped in 500 nM APC; buffer sensor reads 0.06
[5] = molecular target: T2, human activated protein C (APC); assay: cell-based or functional assay; remark: listed apart in the source
[6] = molecular target: T2, human activated protein C (APC); assay: BLI (Octet), nanobody captured, 5 APC concentrations, 1:1 model; written in place of a bar
[7] = molecular target: T4, FXIa (UniProt P03951 19-625); assay: ELISA, FXIa coated at 10 µg/mL, HRP-anti-V5, n=3
T4 construct: also called factor XIa
T4 sequence (P03951 19-625 limits assumed): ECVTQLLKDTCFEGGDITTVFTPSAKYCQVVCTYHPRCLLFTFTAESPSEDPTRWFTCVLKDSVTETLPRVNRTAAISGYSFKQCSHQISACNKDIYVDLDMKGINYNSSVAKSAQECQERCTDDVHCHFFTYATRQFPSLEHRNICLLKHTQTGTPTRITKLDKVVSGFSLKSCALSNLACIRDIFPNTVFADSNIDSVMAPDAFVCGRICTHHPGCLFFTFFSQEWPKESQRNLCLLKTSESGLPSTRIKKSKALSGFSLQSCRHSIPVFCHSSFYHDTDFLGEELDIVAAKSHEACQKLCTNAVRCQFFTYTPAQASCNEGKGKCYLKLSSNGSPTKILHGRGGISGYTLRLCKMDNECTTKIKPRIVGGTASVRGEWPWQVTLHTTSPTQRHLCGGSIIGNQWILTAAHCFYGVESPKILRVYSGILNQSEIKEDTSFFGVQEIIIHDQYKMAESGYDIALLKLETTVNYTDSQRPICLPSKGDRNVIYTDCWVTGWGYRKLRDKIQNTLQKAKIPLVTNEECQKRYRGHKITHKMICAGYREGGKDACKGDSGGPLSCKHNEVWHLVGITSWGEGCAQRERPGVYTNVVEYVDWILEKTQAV

[8] = molecular target: T1, FVIIa; assay: ELISA, FVIIa coated at 10 µg/mL, HRP-anti-V5, n=3
[9] = molecular target: T3, human protein C (PC) zymogen; assay: ELISA
[10] = molecular target: T3, human protein C (PC) zymogen; assay: ELISA screen, PC-coated wells, OD450, n=2
[11] = molecular target: T2, human activated protein C (APC); assay: BLI; end tied to LP2 by Table 5; lower end of the kon range; LP2
[12] = molecular target: T3, human protein C (PC) zymogen; assay: ELISA screen, PC-coated wells, OD450, n=2 [Continued]; remark: listed apart in the source
[13] = molecular target: T2, human activated protein C (APC); assay: BLI; end tied to LP8 by Table 5; upper end of the kon range; LP8

APC plasma T1/2 (min; mean) [1] [min]	Kd [2] [nM]	koff [2] [s⁻¹]	kon [2] [M⁻¹ s⁻¹]	binding result [3]	APC binding (nm) [4] [nm]	Protac-APTT clotting time, 300 nM nanobody [5] [%]	Kd [6] [nM]	binding result [7]	binding result [8]	R46/R41 cleavage ratio of PAR1 by APC [5]	binding result [9]	APC-mediated histone H3 cleavage, 500 nM nanobody [5] [% residual activity]	binding result [10]	kon [11] [M⁻¹ s⁻¹]	binding result [12]	kon [13] [M⁻¹ s⁻¹]	Binder
27.7	0.003	6.3e-07	210000	no binding	0.33	> 90	< 0.01	no binding (tested: 2 µg/mL)	no binding (tested: 2 µg/mL)	–	–	–	–	–	–	–	LP9 (SR16983-R3-P3-B05) (VHH, not shown: small tags and cut ends, Llama VHH purified from E. coli periplasm) VHH: EVQLVESGGGLVQAGGSLRLSCAASGRTFVGSYVMGWFRQAPGKEREFVAASSRSTGNTVYLDSVKGRFTVSRDDAKNTLYLQMNSLKTEDTAVYYCATRASINYNAATWPYWGQGTQVTVSS
25	2.1	0.00069	330000	no binding	0.3	> 90	–	no binding (tested: 2 µg/mL)	no binding (tested: 2 µg/mL)	> 1 ratio and ≤ 2.5 fold	–	–	–	–	–	–	LP11 (SR16983-R3-P3-F03) (VHH, not shown: small tags and cut ends, Llama VHH purified from E. coli periplasm; also made in CHO cells for the endothelial barrier assay) VHH: QLQLVESGGGLAQAGGSLRLSCAASGRTFVGSYVMGWFRQAPGKEREFVAASSRSTGNTVYLDSVKGRFTISRDDAKNTLFLQMNRLKPEDTAVYYCATRASVNYNYAAWPYWGQGTQVTVSS
29.3	4.5	0.0011	230000	–	0.29	–	–	no binding (tested: 2 µg/mL)	no binding (tested: 2 µg/mL)	–	no binding	< 75	–	–	–	–	LP10 (SR16983-R3-P3-E06) (VHH, not shown: small tags and cut ends, Llama VHH purified from E. coli periplasm) VHH: QVQLVESGGGLVQAGGSLRLSCAASGTIESINDMGWYRQAPGKQRELVATVSSSGMTNYADSAKGRFTISRDNAKNTMYLQMNSLKPEDTAVYYCKAHISRSYYYDSLGYDYWGQGTQVTVSS
–	6.1	0.0025	410000	–	0.31	–	–	no binding (tested: 2 µg/mL)	no binding (tested: 2 µg/mL)	–	–	< 75	no binding	–	–	–	LP19 (SR16983-R4-P1-B06) (VHH, not shown: small tags and cut ends, Llama VHH purified from E. coli periplasm) VHH: QLQLVESGGGEVQAGESLRLSCAASGSTFSINVFAWYRDYPGKQRELVAVIGRSGTPRYADSVKGRFTISRDNAKNTVYLQMNSLEPEDTAVYYCHLGDTWGQGTQVTVSS
67.1	1.2	0.00041	350000	no binding	0.32	–	–	no binding (tested: 2 µg/mL)	no binding (tested: 2 µg/mL)	–	–	< 75	–	–	–	–	LP13 (SR16983-R3-P3-G08) (VHH, not shown: small tags and cut ends, Llama VHH purified from E. coli periplasm) VHH: QLQLVESGGGLVQAGGSLRLSCVASGTTFTIEDIGWHRQAPGKQLELVAVSRGGGNADYSDSVKGRFTISRDNAKTTVYLQMSSLKPEDTAVYYCIAKTKATTKWGRGIQVTVSS
33	4.4	0.0027	550000	no binding	0.33	–	–	no binding (tested: 2 µg/mL)	no binding (tested: 2 µg/mL)	–	–	–	–	–	–	–	LP4 (SR16983-R3-P2-A06) (VHH, not shown: small tags and cut ends, Llama VHH purified from E. coli periplasm) VHH: QLQLVESGGGLVQAGGSLRLSCAASGSTFNFRIMGWYRQVPGKQRELVAVINSGGSADYTEDVKGRFTISRDDAKSTMYLQMNSLKPEDTAVYYCHAKKVEPTLFTTTYWGQGTQVTVSS
38.2	8.8	0.0011	130000	–	0.29	> 90	–	no binding (tested: 2 µg/mL)	no binding (tested: 2 µg/mL)	–	–	< 75	no binding	126000	–	–	LP2 (SR16983-R2-P3-H10) (VHH, not shown: small tags and cut ends, Llama VHH purified from E. coli periplasm) VHH: QVQLVESGGGLVQAGGSLRLSCAASGRPISAYTWAWFRQAPGKEREFVAAITSSAGTTYYADSVRGRFTISRDNAENTVYLRMNTLKPEDTAVYYCAADDQGDNWYDHWGQGTQVTVSS
85.6	1.9	0.0007	380000	no binding	0.3	> 90	–	no binding (tested: 2 µg/mL)	no binding (tested: 2 µg/mL)	–	–	–	–	–	–	–	LP20 (SR16983-R4-P1-B07) (VHH, not shown: small tags and cut ends, Llama VHH purified from E. coli periplasm) VHH: QLQLVESGGGLVQAGGSLRLSCTASGSTVRVTAGGWYRQTPGNERELVADIDNGGSTTYADSVKGRFTISRDNAKNAVDLQMNSLKPEDTAVYRCFVIAIPDSAPRPRAYWGQGTEVTVSS
16.1	4.5	0.0011	240000	–	0.29	–	–	no binding (tested: 2 µg/mL)	no binding (tested: 2 µg/mL)	> 1 ratio	–	–	–	–	no binding	–	LP18 (SR16983-R4-P1-A11) (VHH, not shown: small tags and cut ends, Llama VHH purified from E. coli periplasm) VHH: QLQLVESGGGLVQPGGSLRLSCAASGFTFSTKWMYWVRQGPGKGLERVAAIDAGGTSTYYADSVKGRFTISRDNSENTVYLQMNSLESADTAVYYCARSEGGLFRGRGTQVTVSA
28.8	8.8	0.0016	180000	no binding	0.29	–	–	no binding (tested: 2 µg/mL)	no binding (tested: 2 µg/mL)	–	–	–	–	–	–	–	LP3 (SR16983-R2-P4-E09) (VHH, not shown: small tags and cut ends, Llama VHH purified from E. coli periplasm) VHH: QVQLVESGGGLVQPGGSLTLSCAASGTIESINDMGWYRQAPGKQRELVAAITSGGSTNYADSVKGRFTISRDNAKNTVYLQMNSLKPEDTAVYYCNAEVKRHYYYDSAGYRYWGQGTQVTVSS
36.4	16	0.0066	400000	–	0.31	–	–	no binding (tested: 2 µg/mL)	no binding (tested: 2 µg/mL)	–	no binding	–	–	–	–	–	LP15 (SR16983-R3-P5-H05) (VHH, not shown: small tags and cut ends, Llama VHH purified from E. coli periplasm) VHH: QLQLVESGGGLVQAGGSLRLSCAASGTTFSFVYMGWYRQAPGNQRDLVARISSDGSTNYADSVKGRFTISGDNAKNTVYLQMNSLKPEDTARYYCFWNGHTNKWGQGTQVTVSS
33.9	9.4	0.0041	440000	–	0.34	–	–	no binding (tested: 2 µg/mL)	no binding (tested: 2 µg/mL)	–	–	< 75	–	–	no binding	–	LP7 (SR16983-R3-P2-H08) (VHH, not shown: small tags and cut ends, Llama VHH purified from E. coli periplasm) VHH: EVQLVESGGGLVQAGGSLRLSCAASGTTFDMNSMGWYRQGPGFKRELVATISMGGDTNYADSVKGRFTISRANAKNTVYMQMNSLKPEDTAVYYCNAERIWPNRRTFWGQGTQVTVSS
–	2.8	0.0017	620000	–	0.32	> 90	–	no binding (tested: 2 µg/mL)	no binding (tested: 2 µg/mL)	–	–	< 75	no binding	–	–	622000	LP8 (SR16983-R3-P3-A04) (VHH, not shown: small tags and cut ends, Llama VHH purified from E. coli periplasm) VHH: QLQLVESGGGLVEAGGSLRLSCAASGRTFSSGALGWFRQAPGKEREFVATIRWSDERTQYSEFVKGRFTISRDNAKNTVYLQMNNLQPEDTAVYYCRSTVGNLLYWGQGTQVTVSS
